Experiment [1] deals with purified recombinant Rac1 Q61L (analyte in SPR) (UniProt P63000 1-192, Q61L). The experiment is described as follows: SPR. For orientation: SPR reads the build-up and loss of mass on a sensor chip optically.
The target of experiment [2] is His-Rac1 Q61L (immobilised in SPR) (UniProt P63000 1-192, Q61L). The experiment is described as follows: SPR.

B1: GST-CYRI-B RBD (domain or fragment)
chain: ESEKEIYNQVNVVLKDAEGILEDLQSYRGAGHEIREAIQHPADEKLQEKAWGAVVPLVGKLKKFYEFSQRLEAALRGLLGALTSTPYSPTQHLEREQALAKQFAEILHFTLRFDELKMTNPAIQNDFSYYRRTLSRMRINNVPAEGENEVNNELANRMSLFYAEATPMLKTLSDATTKFVSENKNLPIENTTDCLSTMASVCRVMLE
Take B1: in experiment [1], the Kd was found to be 27 µM.

B2: CYRI-B RBD (analyte in SPR) (domain or fragment)
chain: ESEKEIYNQVNVVLKDAEGILEDLQSYRGAGHEIREAIQHPADEKLQEKAWGAVVPLVGKLKKFYEFSQRLEAALRGLLGALTSTPYSPTQHLEREQALAKQFAEILHFTLRFDELKMTNPAIQNDFSYYRRTLSRMRINNVPAEGENEVNNELANRMSLFYAEATPMLKTLSDATTKFVSENKNLPIENTTDCLSTMASVCRVMLE
Molecule B2 yielded a Kd in experiment [2] of 22 µM.

In general, Kd refers to the concentration at which binding is half-saturated.

These data come from article PMC6863750 (Nature cell biology, 2018).
